Values quoted from earlier work, collected in patent publication US20220119510A1, “ANTI-POLYETHYLENE GLYCOL (PEG) ANTIBODY MOUSE MODEL FOR RIGOROUS ASSESSMENT OF PEG-BASED THERAPIES: ADJUVANT-FREE INDUCTION MODEL” (Northwestern University, priority 2020, published 2022).

Tested on: rabbits

B1: PEGylated ovalbumin: PEGylated ovalbumin used to immunize rabbits (conjugate, UniProt P01012 2-386, looked up)
Ovalbumin: GSIGAASMEFCFDVFKELKVHHANENIFYCPIAIMSALAMVYLGAKDSTRTQINKVVRFDKLPGFGDSIEAQCGTSVNVHSSLRDILNQITKPNDVYSFSLASRLYAEERYPILPEYLQCVKELYRGGLEPINFQTAADQARELINSWVESQTNGIIRNVLQPSSVDSQTAMVLVNAIVFKGLWEKAFKDEDTQAMPFRVTEQESKPVQMMYQIGLFRVASMASEKMKILELPFASGTMSMLVLLPDEVSGLEQLESIINFEKLTEWTSSNVMEERKIKVYLPRMKMEEKYNLTSVLMAMGITDVFSSSANLSGISSAESLKISQAVHAAHAEINEAGREVVGSAEAGVDAASVSEEFRADHPFLFCIKHIATNAVLFFGRCVSP
modifications: PEGylated
notes: PEGylated ovalbumin used to immunize rabbits
- anti-PEG antibodies after immunization: anti-PEG antibodies were first observed
